Target: T1, MgrA (Staphylococcus aureus XN108) (UniProt P0C1S0)
T1 sequence: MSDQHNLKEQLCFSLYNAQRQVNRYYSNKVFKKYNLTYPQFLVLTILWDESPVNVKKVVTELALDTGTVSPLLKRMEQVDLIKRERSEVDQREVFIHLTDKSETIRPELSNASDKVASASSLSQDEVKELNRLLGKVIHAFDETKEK
Test: competition

Sequence: TTTACGTGCAGCACGTTCACGTACCTCAAAGTTACCGAAACCAATTAATTGTACTTTTTCACCTTTAGCAAGTGAGTTTTGGATTGATTCGAATACAGCATCTACTGCTGAACCAGCTTCTTTTT (double strand) [hu fragment (competitor)]
- binding: no binding

From paper PMC11944577
